Legend:
klotho gene = assay: Optimal additive concentration: klotho gene expression in urine-derived stem cells; assay type: cell-based, human; conditions: for effect on klotho gene expression of addition to TM8 medium: compared to control group, dose-dependent; for optimal concentration (klotho gene expression): enhancement in gene expression relative to added dosage
Experimental: (§1) In this Example, cell proliferation rate or klotho gene analysis was conducted with various concentrations of lipid mixture (CDLC), T3, FGF23, Calcifediol, and PTH in the TM8 culture medium to explore their optimal concentrations (see FIG. 5).
Furthermore, FGF23, Calcifediol, and PTH that are added to the culture medium of the present disclosure are growth factors and hormones that interact through the endocrine system in the human kidney. The klotho proteins in the human body mediate these interactions. The inventors aimed to enhance the expression of klotho proteins in urine-derived stem cells by mimicking the endocrine system in the human body through the composition of the culture medium. In this Example, evaluation was made of the enhancement of klotho gene expression in urine-derived stem cells in various concentration ranges of FGF23, Calcifediol, and PTH to determine their optimal concentrations.
(§2) Additionally, in this Example, to explore the optimal concentrations while excluding the interactions among the substances, each substance was individually added to the TM8 basal medium (hereinafter referred to as proliferation or klotho gene TM8-Basal), and cell expression was analyzed and compared. The TM8 medium containing all substances at their optimal concentrations was used as the control group (FIG. 6).

urine-derived stem cells = assay: Optimal additive concentration: cell proliferation rate of urine-derived stem cells; assay type: cell-based, human; conditions: enhancement in proliferation relative to added dosage
Experimental: as §1
Specifically, CDLC was used to compensate for the decrease in cell proliferation rate caused by low serum usage, while T3 was used to facilitate the proliferation of urine-derived stem cells with characteristics of epithelial cells. In this example, evaluation was made of the improvement of cell proliferation rate in urine-derived stem cells in various concentration ranges of lipid mixture and T3 to determine their optimal concentrations.
as §2

Molecule	effect on klotho gene expression of addition to TM8 medium (klotho gene)	optimal concentration (klotho gene expression) (klotho gene)	optimal concentration (cell proliferation) (urine-derived stem cells)
C=C1CC[C@H](O)C/C1=C/C=C1\CCC[C@]2(C)[C@@H]([C@H](C)CCCC(C)(C)O)CC[C@@H]12 [Calcifediol, reference compound]	increased klotho gene expression	100 nM	–
N[C@@H](Cc1cc(I)c(Oc2ccc(O)c(I)c2)c(I)c1)C(=O)O [T3, Triiodo-L-thyronine]	–	–	10 nM
PTH: parathyroid hormone (PTH), medium additive (Sigma-Aldrich) (peptide, UniProt P01270 32-115, looked up, Parathyroid hormone) Parathyroid hormone: SVSEIQLMHNLGKHLNSMERVEWLRKKLQDVHNFVALGAPLAPRDAGSQRPRKKEDNVLVESHEKSLGEADKADVNVLTKAKSQ	increased klotho gene expression	100 nM	–
FGF23: growth factor added to the culture medium (Sigma-Aldrich) (protein, UniProt Q9GZV9 25-251, looked up) Fibroblast growth factor 23: YPNASPLLGSSWGGLIHLYTATARNSYHLQIHKNGHVDGAPHQTIYSALMIRSEDAGFVVITGVMSRRYLCMDFRGNIFGSHYFDPENCRFQHQTLENGYDVYHSPQYHFLVSLGRAKRAFLPGMNPPPYSQFLSRRNEIPLIHFNTPIPRRHTRSAEDDSERDPLNVLKPRARMTPAPASCSQELPSAEDNSPMASDPLGVVRGGRVNTHAGGTGPEGCRPFAKFI	increased klotho gene expression	10 ng/mL	–
